This series has as its system Escherichia coli TOP10. Kind of series: shrunken log2 fold change of peptide-encoding DNA abundance (4.5 h post-induction vs induction); higher = less antimicrobial activity (less host growth inhibition). The conditions noted are these: time post-induction: 4.5 h; library: site-saturation at positions 5, 18, 19, 20.
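Also: peptides expressed intracellularly from a pBAD plasmid library in pooled LB shake-flask culture, induced with 0.3% L-arabinose, DNA abundance read by NGS, three biological replicates, DESeq2 with apeglm shrinkage.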

As for RRIRRRPPRLPRPRPRPTLKPRP, the “shrunken log2 fold change” value worked out at 0.379.
For RRIRARPPRLPRPRPRPYIKPRP the value was -1.17; for RRIRFRPPRLPRPRPRPYDMPRP, -0.209; for RRIRCRPPRLPRPRPRPWQNPRP, -0.124.
The result for RRIRNRPPRLPRPRPRPWMAPRP reads -0.28; that for RRIRARPPRLPRPRPRPGVWPRP, 1.55; that for RRIRRRPPRLPRPRPRPIDWPRP, 0.122.
The result for RRIRDRPPRLPRPRPRPWRWPRP reads 0.196; that for RRIRNRPPRLPRPRPRPPESPRP, -0.000194; that for RRIRGRPPRLPRPRPRPERCPRP, 0.203.
For the sequence RRIRTRPPRLPRPRPRPYYLPRP, the “shrunken log2 fold change” value was -1.28.
The result for RRIRVRPPRLPRPRPRPCEMPRP reads 1.45.
For RRIRMRPPRLPRPRPRPDREPRP the value was -0.00516; for RRIRYRPPRLPRPRPRPRPWPRP, 0.332.
The result for RRIRWRPPRLPRPRPRPWSSPRP reads -0.0663.
In the case of RRIRFRPPRLPRPRPRPYTDPRP, the “shrunken log2 fold change” value is -0.233.
As for RRIRHRPPRLPRPRPRPFLGPRP, the “shrunken log2 fold change” value was found to be 0.0354.
For RRIRGRPPRLPRPRPRPYEMPRP, the “shrunken log2 fold change” value came to 0.0132.
The result for RRIRCRPPRLPRPRPRPPRFPRP reads 1.34.
The result for RRIRARPPRLPRPRPRPYAHPRP reads -0.149.
On to RRIRYRPPRLPRPRPRPYPFPRP, for which the “shrunken log2 fold change” value was -0.0218.
For RRIRFRPPRLPRPRPRPAYYPRP the value was -0.227.
For RRIRQRPPRLPRPRPRPQCFPRP the value was -1.14.
The result for RRIRCRPPRLPRPRPRPPHPPRP reads 0.339; that for RRIRARPPRLPRPRPRPVFHPRP, -0.253.
As to RRIRHRPPRLPRPRPRPPKYPRP, the “shrunken log2 fold change” value is -0.349.
The result for RRIRARPPRLPRPRPRPNVKPRP reads -0.167; that for RRIRARPPRLPRPRPRPYWYPRP, -0.763.
The result for RRIRRRPPRLPRPRPRPGELPRP reads 0.12; that for RRIRARPPRLPRPRPRPKNYPRP, -0.279; that for RRIRERPPRLPRPRPRPHHKPRP, -0.449.
The result for RRIRWRPPRLPRPRPRPNKIPRP reads -0.432; that for RRIRPRPPRLPRPRPRPEAFPRP, -0.0543.
As to RRIRERPPRLPRPRPRPLSSPRP, the “shrunken log2 fold change” value is 0.00508.
The result for RRIRDRPPRLPRPRPRPVISPRP reads 0.277.
For RRIRDRPPRLPRPRPRPFLFPRP the value was 0.212.
In the case of RRIRNRPPRLPRPRPRPPYDPRP, the “shrunken log2 fold change” value is -0.561.
For the sequence RRIRSRPPRLPRPRPRPLFVPRP, the “shrunken log2 fold change” value is -0.188.
The result for RRIRRRPPRLPRPRPRPHRCPRP reads 0.0585; that for RRIRFRPPRLPRPRPRPSIYPRP, -0.615; that for RRIRERPPRLPRPRPRPFDLPRP, -0.504.
The result for RRIRVRPPRLPRPRPRPIWEPRP reads -0.00136; that for RRIRGRPPRLPRPRPRPECEPRP, 1.88; that for RRIRSRPPRLPRPRPRPQLQPRP, 0.104.
For RRIRQRPPRLPRPRPRPYCMPRP the value was -0.302; for RRIRRRPPRLPRPRPRPTWEPRP, 0.0289.
As for RRIRDRPPRLPRPRPRPLPFPRP, the “shrunken log2 fold change” value was -0.398.
The result for RRIRTRPPRLPRPRPRPWLMPRP reads -0.11; that for RRIRCRPPRLPRPRPRPAFFPRP, 0.0268.
For the sequence RRIRKRPPRLPRPRPRPLASPRP, the “shrunken log2 fold change” value was 0.0708.
The result for RRIRMRPPRLPRPRPRPCCFPRP reads 0.116; that for RRIRFRPPRLPRPRPRPTADPRP, 0.359; that for RRIRARPPRLPRPRPRPAMPPRP, -0.131.
The result for RRIRYRPPRLPRPRPRPSYQPRP reads -1.27; that for RRIRPRPPRLPRPRPRPTDQPRP, 0.399; that for RRIRHRPPRLPRPRPRPSEIPRP, -0.0493.
For RRIRDRPPRLPRPRPRPYREPRP the value was -0.748; for RRIRARPPRLPRPRPRPADPPRP, 0.611.
RRIRQRPPRLPRPRPRPPVQPRP: the “shrunken log2 fold change” value worked out at 0.301.
As to RRIRGRPPRLPRPRPRPIQNPRP, the “shrunken log2 fold change” value came to 0.0261.
The result for RRIRYRPPRLPRPRPRPFCHPRP reads -0.239.
The result for RRIRKRPPRLPRPRPRPAIAPRP reads 0.802.
The result for RRIRPRPPRLPRPRPRPQKCPRP reads -0.0778; that for RRIRARPPRLPRPRPRPYRPPRP, -0.179.
With RRIRLRPPRLPRPRPRPDDPPRP, the “shrunken log2 fold change” value was found to be 0.00153.
For RRIRERPPRLPRPRPRPTTDPRP the value was -0.148.
For RRIRQRPPRLPRPRPRPILAPRP the value was 0.465; for RRIRRRPPRLPRPRPRPAPVPRP, 1.06; for RRIRGRPPRLPRPRPRPLNLPRP, -0.018.
As for RRIRVRPPRLPRPRPRPECQPRP, the “shrunken log2 fold change” value was determined as 0.353.
For RRIRRRPPRLPRPRPRPRLVPRP the value was 0.527; for RRIRMRPPRLPRPRPRPEYGPRP, 0.132; for RRIRVRPPRLPRPRPRPDSVPRP, -0.28.
Take RRIRDRPPRLPRPRPRPPYIPRP: the “shrunken log2 fold change” value is -0.346.
RRIRARPPRLPRPRPRPHICPRP: the “shrunken log2 fold change” value was -0.104.
With RRIRERPPRLPRPRPRPYEYPRP, the “shrunken log2 fold change” value was -0.387.
On to RRIRWRPPRLPRPRPRPYILPRP, for which the “shrunken log2 fold change” value is -0.849.
For the sequence RRIRTRPPRLPRPRPRPVPHPRP, the “shrunken log2 fold change” value is -0.0291.
For RRIRRRPPRLPRPRPRPAQSPRP, the “shrunken log2 fold change” value worked out at 0.247.
With RRIRMRPPRLPRPRPRPNWYPRP, the “shrunken log2 fold change” value was -0.0601.
The result for RRIRARPPRLPRPRPRPCTEPRP reads -0.0123.
The result for RRIRVRPPRLPRPRPRPCQYPRP reads -0.53; that for RRIRVRPPRLPRPRPRPSRYPRP, -0.0975; that for RRIRLRPPRLPRPRPRPCVPPRP, -0.208.
For RRIRMRPPRLPRPRPRPEKLPRP the value was 0.462; for RRIRWRPPRLPRPRPRPYWPPRP, -0.022; for RRIRLRPPRLPRPRPRPIETPRP, -0.0258.
RRIRARPPRLPRPRPRPRCPPRP: the “shrunken log2 fold change” value was found to be 0.248.
For RRIRIRPPRLPRPRPRPADQPRP the value was 0.0357; for RRIRVRPPRLPRPRPRPKSPPRP, 0.272.
The result for RRIRARPPRLPRPRPRPMLTPRP reads 0.466.
With RRIRMRPPRLPRPRPRPTFRPRP, the “shrunken log2 fold change” value was -0.091.
For RRIRTRPPRLPRPRPRPPNAPRP, the “shrunken log2 fold change” value is 0.535.
For RRIRPRPPRLPRPRPRPGMGPRP the value was 0.149.
The result for RRIRLRPPRLPRPRPRPDDAPRP reads -0.115; that for RRIRTRPPRLPRPRPRPGCIPRP, -0.22.
For RRIRCRPPRLPRPRPRPPTDPRP the value was 0.298; for RRIRSRPPRLPRPRPRPLKAPRP, -0.234.
Turning to RRIRDRPPRLPRPRPRPSCSPRP, the “shrunken log2 fold change” value was -0.253.
For RRIRERPPRLPRPRPRPTQWPRP the value was 0.00138.
For RRIRVRPPRLPRPRPRPKGMPRP the value was 0.109; for RRIRCRPPRLPRPRPRPEDYPRP, -0.304; for RRIRFRPPRLPRPRPRPGPNPRP, -0.0666.
Consider RRIRPRPPRLPRPRPRPRNHPRP, for which the “shrunken log2 fold change” value was -0.196.
For RRIRPRPPRLPRPRPRPRYMPRP the value was -0.213; for RRIRFRPPRLPRPRPRPYNEPRP, -0.812; for RRIRDRPPRLPRPRPRPVFCPRP, 0.0325.
For RRIRMRPPRLPRPRPRPLETPRP the value was 2.02; for RRIRMRPPRLPRPRPRPGPRPRP, 1.46.
The result for RRIRYRPPRLPRPRPRPFDYPRP reads -0.184; that for RRIRWRPPRLPRPRPRPCMTPRP, 0.317; that for RRIRTRPPRLPRPRPRPKYSPRP, -0.413.
As to RRIRARPPRLPRPRPRPCSIPRP, the “shrunken log2 fold change” value is -0.092.
For the sequence RRIRARPPRLPRPRPRPFWGPRP, the “shrunken log2 fold change” value was determined as 0.0148.
For RRIRERPPRLPRPRPRPSGGPRP the value was -0.0233; for RRIRTRPPRLPRPRPRPGKQPRP, -0.184; for RRIRGRPPRLPRPRPRPMNLPRP, 0.00442.
The result for RRIRDRPPRLPRPRPRPENSPRP reads 0.0647.
The result for RRIRGRPPRLPRPRPRPSKYPRP reads 0.00351; that for RRIRDRPPRLPRPRPRPAELPRP, 0.0334.
Consider RRIRTRPPRLPRPRPRPGKYPRP, for which the “shrunken log2 fold change” value is -0.755.
The result for RRIRDRPPRLPRPRPRPCVTPRP reads 0.163; that for RRIRERPPRLPRPRPRPNYCPRP, -0.0596; that for RRIRYRPPRLPRPRPRPVYFPRP, -1.42.
For RRIRGRPPRLPRPRPRPTNGPRP the value was 0.254.

For the origin of these results see the supplement of paper PMC9112550, “Optimization of the antimicrobial peptide Bac7 by deep mutational scanning” (BMC Biology, 2022).
